In article PMC11187563, “The importance of tyrosines in multimers of cyclic RGD nonapeptides: towards αvβ6-integrin targeted radiotherapeutics” (RSC Medicinal Chemistry, 2024):
Read-outs that look alike come from different tables or passages of the source.

Test: Ex vivo biodistribution of 177Lu-labeled peptide tetramers in H2009 xenografted SCID mice
Conditions: CB17 SCID, mouse, iv, total radioactivity; for tissue uptake at 1.5 h / tissue to tissue ratio at 1.5 h: 90 min p.i.; for tissue uptake at 24 h / tissue to tissue ratio at 24 h: 154 pmol, 24 h p.i.; for tissue uptake at 72 h / tissue to tissue ratio at 72 h: 199 pmol, 3 d p.i.
How it was run: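 SCID mice carried subcutaneous H2009 xenografts on the right shoulder. 177Lu-labeled conjugates were injected i.v., and ex vivo organ distribution was measured at two time points post-injection.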

[1] = small intestine (empty), H2009 bearing SCID mice, read-out: Small intestine (empty) %IA/g
[2] = spleen, H2009 bearing SCID mice, read-out: Spleen %IA/g
[3] = stomach (empty), H2009 bearing SCID mice, read-out: Stomach (empty) %IA/g
[4] = tumor/pancreas, H2009 bearing SCID mice, read-out: tumor/organ ratio, Pancreas

For CC(C)C[C@@H]1NC(=O)[C@H](CC(=O)O)NC(=O)CNC(=O)[C@H](CCCNC(=N)N)NC(=O)[C@H](Cc2ccc(O)cc2)NC(=O)[C@H](CCCCNC(=O)CCc2cn(CCCNC(=O)CCP(=O)(O)CN3CCN(CP(=O)(O)CCC(=O)NCCCn4cc(CCC(=O)NCCCC[C@H]5C(=O)N[C@@H](Cc6ccc(O)cc6)C(=O)N[C@@H](CCCNC(=N)N)C(=O)NCC(=O)N[C@@H](CC(=O)O)C(=O)N[C@@H](CC(C)C)C(=O)N[C@@H](C)C(=O)N[C@@H](Cc6ccc(O)cc6)C(=O)N6CCC[C@@H]6C(=O)N5C)nn4)CCN(CP(=O)(O)CCC(=O)NCCCn4cc(CCC(=O)NCCCC[C@H]5C(=O)N[C@@H](Cc6ccc(O)cc6)C(=O)N[C@@H](CCCNC(=N)N)C(=O)NCC(=O)N[C@@H](CC(=O)O)C(=O)N[C@@H](CC(C)C)C(=O)N[C@@H](C)C(=O)N[C@@H](Cc6ccc(O)cc6)C(=O)N6CCC[C@@H]6C(=O)N5C)nn4)CCN(CP(=O)(O)CCC(=O)NCCCn4cc(CCC(=O)NCCCC[C@H]5C(=O)N[C@@H](Cc6ccc(O)cc6)C(=O)N[C@@H](CCCNC(=N)N)C(=O)NCC(=O)N[C@@H](CC(=O)O)C(=O)N[C@@H](CC(C)C)C(=O)N[C@@H](C)C(=O)N[C@@H](Cc6ccc(O)cc6)C(=O)N6CCC[C@@H]6C(=O)N5C)nn4)CC3)nn2)N(C)C(=O)[C@H]2CCCN2C(=O)[C@H](Cc2ccc(O)cc2)NC(=O)[C@H](C)NC1=O [Compound 177Lu-Y8, metal not drawn], the tissue uptake at 1.5 h (small intestine (empty), 124 pmol, H2009 bearing SCID mice, read-out: Small intestine (empty) %IA/g) was 3 %ID/g, the tissue uptake at 24 h [1] was 1.03 %ID/g and the tissue uptake at 72 h [1] was 0.16 %ID/g. The tissue uptake at 1.5 h (small intestine (empty), + 50 nmol non-labeled compound 10 min prior to activity, n = 2, read-out: Small intestine (empty) %IA/g, + 50 nmol cold) was 0.62 %ID/g, the tissue uptake at 1.5 h (spleen, 124 pmol, H2009 bearing SCID mice, read-out: Spleen %IA/g) was 8.41 %ID/g and the tissue uptake at 24 h [2] was 1.89 %ID/g. For the same molecule, the tissue uptake at 72 h [2] was 2.01 %ID/g, the tissue uptake at 1.5 h (spleen, + 50 nmol non-labeled compound 10 min prior to activity, n = 2, read-out: Spleen %IA/g, + 50 nmol cold) was 4.99 %ID/g and the tissue uptake at 1.5 h (stomach (empty), 124 pmol, H2009 bearing SCID mice, read-out: Stomach (empty) %IA/g) was 8.26 %ID/g. The tissue uptake at 24 h [3] was 3.84 %ID/g, the tissue uptake at 72 h [3] was 2.65 %ID/g and the tissue uptake at 1.5 h (stomach (empty), + 50 nmol non-labeled compound 10 min prior to activity, n = 2, read-out: Stomach (empty) %IA/g, + 50 nmol cold) was 1.19 %ID/g. It also gave a tissue uptake at 24 h (tumor (H2009 xenograft), H2009 bearing SCID mice, read-out: Tumor H2009 %IA/g) of 2.42 %ID/g, a tissue uptake at 1.5 h (tumor (H2009 xenograft), + 50 nmol non-labeled compound 10 min prior to activity, n = 2, read-out: Tumor H2009 %IA/g, + 50 nmol cold) of 1.71 %ID/g and a tissue to tissue ratio at 72 h (tumor / adrenals, H2009 bearing SCID mice, read-out: tumor/organ ratio, Adrenals) of 4.5. For the same molecule, the tissue to tissue ratio at 24 h (tumor / blood, H2009 bearing SCID mice, read-out: tumor/organ ratio, Blood) was 59.6, the tissue to tissue ratio at 72 h (tumor / bone, H2009 bearing SCID mice, read-out: tumor/organ ratio, Bone) was 3.4 and the tissue to tissue ratio at 24 h (tumor / heart (myocard), H2009 bearing SCID mice, read-out: tumor/organ ratio, Heart (myocard)) was 15.2. The tissue to tissue ratio at 72 h (tumor / large intestine (empty), H2009 bearing SCID mice, read-out: tumor/organ ratio, Large intestine (empty)) was 3.6, the tissue to tissue ratio at 24 h (tumor / liver, H2009 bearing SCID mice, read-out: tumor/organ ratio, Liver) was 2.7 and the tissue to tissue ratio at 24 h (tumor / lung, H2009 bearing SCID mice, read-out: tumor/organ ratio, Lung) was 2.1. For the same molecule, the tissue to tissue ratio at 72 h (tumor / muscle, H2009 bearing SCID mice, read-out: tumor/organ ratio, Muscle) was 8.4, the tissue to tissue ratio at 72 h (tumor / small intestine (empty), H2009 bearing SCID mice, read-out: tumor/organ ratio, Small intestine (empty)) was 11.4 and the tissue to tissue ratio at 24 h (tumor / spleen, H2009 bearing SCID mice, read-out: tumor/organ ratio, Spleen) was 1.4. It also gave a tissue to tissue ratio at 72 h (tumor / stomach (empty), H2009 bearing SCID mice, read-out: tumor/organ ratio, Stomach (empty)) of 0.8, a tissue to tissue ratio at 1.5 h (tumor/adrenals, 124 pmol, H2009 bearing SCID mice, read-out: tumor/organ ratio, Adrenals) of 8.9 and a tissue to tissue ratio at 24 h (tumor/adrenals, H2009 bearing SCID mice, read-out: tumor/organ ratio, Adrenals) of 10.2. It also gave a tissue to tissue ratio at 1.5 h (tumor/blood, 124 pmol, H2009 bearing SCID mice, read-out: tumor/organ ratio, Blood) of 2.4, a tissue to tissue ratio at 72 h (tumor/blood, H2009 bearing SCID mice, read-out: tumor/organ ratio, Blood) of 67 and a tissue to tissue ratio at 1.5 h (tumor/bone, 124 pmol, H2009 bearing SCID mice, read-out: tumor/organ ratio, Bone) of 1.8. It also gave a tissue to tissue ratio at 24 h (tumor/bone, H2009 bearing SCID mice, read-out: tumor/organ ratio, Bone) of 3.6, a tissue to tissue ratio at 1.5 h (tumor/heart (myocard), 124 pmol, H2009 bearing SCID mice, read-out: tumor/organ ratio, Heart (myocard)) of 5.9 and a tissue to tissue ratio at 72 h (tumor/heart (myocard), H2009 bearing SCID mice, read-out: tumor/organ ratio, Heart (myocard)) of 12.2. It also gave a tissue to tissue ratio at 1.5 h (tumor/large intestine (empty), 124 pmol, H2009 bearing SCID mice, read-out: tumor/organ ratio, Large intestine (empty)) of 1.8, a tissue to tissue ratio at 24 h (tumor/large intestine (empty), H2009 bearing SCID mice, read-out: tumor/organ ratio, Large intestine (empty)) of 1.8 and a tissue to tissue ratio at 1.5 h (tumor/liver, 124 pmol, H2009 bearing SCID mice, read-out: tumor/organ ratio, Liver) of 5.1. For the same molecule, the tissue to tissue ratio at 72 h (tumor/liver, H2009 bearing SCID mice, read-out: tumor/organ ratio, Liver) was 2.4, the tissue to tissue ratio at 1.5 h (tumor/lung, 124 pmol, H2009 bearing SCID mice, read-out: tumor/organ ratio, Lung) was 1 and the tissue to tissue ratio at 72 h (tumor/lung, H2009 bearing SCID mice, read-out: tumor/organ ratio, Lung) was 2.2. For the same molecule, the tissue to tissue ratio at 1.5 h (tumor/muscle, 124 pmol, H2009 bearing SCID mice, read-out: tumor/organ ratio, Muscle) was 7.4, the tissue to tissue ratio at 24 h (tumor/muscle, H2009 bearing SCID mice, read-out: tumor/organ ratio, Muscle) was 9.5 and the tissue to tissue ratio at 1.5 h (tumor/pancreas, 124 pmol, H2009 bearing SCID mice, read-out: tumor/organ ratio, Pancreas) was 14.3. The tissue to tissue ratio at 24 h [4] was 18.4, the tissue to tissue ratio at 72 h [4] was 14.9 and the tissue to tissue ratio at 1.5 h (tumor/small intestine (empty), 124 pmol, H2009 bearing SCID mice, read-out: tumor/organ ratio, Small intestine (empty)) was 2.1. The tissue to tissue ratio at 24 h (tumor/small intestine (empty), H2009 bearing SCID mice, read-out: tumor/organ ratio, Small intestine (empty)) was 2.5, the tissue to tissue ratio at 1.5 h (tumor/spleen, 124 pmol, H2009 bearing SCID mice, read-out: tumor/organ ratio, Spleen) was 0.7 and the tissue to tissue ratio at 72 h (tumor/spleen, H2009 bearing SCID mice, read-out: tumor/organ ratio, Spleen) was 1. The tissue to tissue ratio at 1.5 h (tumor/stomach (empty), 124 pmol, H2009 bearing SCID mice, read-out: tumor/organ ratio, Stomach (empty)) was 0.7 and the tissue to tissue ratio at 24 h (tumor/stomach (empty), H2009 bearing SCID mice, read-out: tumor/organ ratio, Stomach (empty)) was 0.7.
